Test results reported in patent US11078465B2, “Alcohol dehydrogenase mutant and application thereof in synthesis of diaryl chiral alcohols” (Jiangnan University, priority 2018, dated 2021).

Key:
Type in all cases: biochemical
[1] = tested on: O=C(c1ccc(Cl)cc1)c1ccccn1; assay: Kinetic analysis of alcohol dehydrogenase mutant (CPMK reduction, NADPH absorption at 340 nm); settings: other: E214G/S237C, substrate CPMK, pH 7.0, 30° C.
[2] = tested on: O=C(c1ccc(Cl)cc1)c1ccccn1; assay: as above; settings: substrate CPMK, pH 7.0, 30° C.
Experimental: (§1) Adopting a total reaction system of 200 μL, including: 1.0 mM NADPH, 1.0 mM substrate CPMK and sodium phosphate buffer (PBS, 100 mM, pH 7.0), fully and evenly mixing, maintaining at 30° C. for 2 min, adding an appropriate amount of enzyme solution, and detecting the change in light absorption at 340 nm.
(§2) The enzyme activity was calculated by the following formula: Enzyme activity (U)=EW×V×10^3/(6220×I);
(§3) in the formula, EW is the change in absorbance at 340 nm in 1 min; V is the volume of a reaction solution in mL; 6220 is the molar extinction coefficient of NADPH in L/mol·cm); and 1 is the optical path distance in cm. One activity unit (U) corresponds to the amount of enzyme required to catalyze the oxidation of 1 μmol NADPH per minute under the above conditions.
(§4) A column used for purification was a nickel affinity column HisTrap FF crude, and purification was achieved through affinity chromatography using a histidine tag on recombinant protein. The nickel column was equilibrated with a solution A first, a crude enzyme solution was loaded, a penetrating peak was further eluted off using the solution A, and after equilibrium, a solution B (20 mM sodium phosphate, 500 mM NaCl, and 1000 mM imidazole, pH 7.4) was used for gradient elution to elute off the recombinant protein bound to the nickel column, so as to obtain the recombinant alcohol dehydrogenase mutant. The purified protein was subjected to activity measurement (CPMK as substrate, and NADPH as coenzyme) and SDS-PAGE analysis. […] The purified alcohol dehydrogenase protein was then replaced into a Tris-HCl (100 mM, pH 7.0) buffer using a Hi Trap Desalting column (GE Healthcare).
(§5) The activity of KpADH at different substrate concentrations and coenzyme concentrations was determined, and a double reciprocal curve was made based on the reciprocal of activity and substrate concentration to calculate kinetic parameters.
(§6) Two mutants of S237A and S237C valuable for modification of asymmetric synthesis R- and S- are obtained by random mutation screening, and the two sites are used as templates for random mutation. […] It can be known by combining the data in Tables 2 and 3 that the 214 site of alcohol dehydrogenase is a site that is important for determining selectivity improvement and inversion.

[3] = tested on: O=C(c1ccc(Cl)cc1)c1ccccn1; assay: Kinetic analysis of alcohol dehydrogenase (CPMK reduction, NADPH absorption at 340 nm); settings: other: WT, substrate CPMK, pH 7.0, 30° C.
Experimental: as §1, §2, §3, §4, §5

[4] = target: alcohol dehydrogenase KpADH (SEQ ID No. 2) mutant F320V/S237A (Vanderwaltozyma polyspora, UniProt A7TM80, form not given/S237A); assay: Kinetic analysis of alcohol dehydrogenase mutant (CPMK reduction, NADPH absorption at 340 nm); settings: substrate CPMK, pH 7.0, 30° C.
Experimental: as §1, §2, §3, §4, §5, §6

[5] = target: alcohol dehydrogenase KpADH (SEQ ID No. 2) mutant F320W/S237A (Vanderwaltozyma polyspora, UniProt A7TM80, form not given/S237A); assay: as above; settings: substrate CPMK, pH 7.0, 30° C.
Experimental: as §1, §2, §3, §4, §5, §6

[6] = target: alcohol dehydrogenase KpADH, wild type (WT), SEQ ID No. 2 (Vanderwaltozyma polyspora, UniProt A7TM80); assay: Kinetic analysis of alcohol dehydrogenase (CPMK reduction, NADPH absorption at 340 nm); parameters: unit not given here
Experimental: as §1, §2, §3, §4, §5

With “alcohol dehydrogenase KpADH (SEQ ID No. 2) mutant M12, E214G/S237C (Vanderwaltozyma polyspora DSM 70294; E214G/S237C)” the Km [1] was 310 ± 20 µM, the Vmax [1] was 9.54 µM/min/mg and the kcat [1] was 6.3 ± 0.11 s⁻¹. The kcat/Km [1] was 22100 ± 1370 M⁻¹ s⁻¹.

Compound “alcohol dehydrogenase KpADH (SEQ ID No. 2) mutant L60F/S237C (Vanderwaltozyma polyspora DSM 70294; L60F/S237C)” has a Km ([2]; other: L60F/S237C) of 1120 ± 20 µM, a Vmax ([2]; other: L60F/S237C) of 12.6 µM/min/mg and a kcat ([2]; other: L60F/S237C) of 8.4 ± 0.23 s⁻¹. The kcat/Km ([2]; other: L60F/S237C) was 7500 ± 690 M⁻¹ s⁻¹.

In the case of “alcohol dehydrogenase KpADH, wild type (WT), SEQ ID No. 2 (Vanderwaltozyma polyspora DSM 70294)”, the Km [3] is reported as 760 ± 190 µM, the Vmax [3] is reported as 21.3 µM/min/mg and the kcat [3] is reported as 14.2 ± 1.16 s⁻¹. For the same compound, the kcat/Km [3] was 18700 ± 620 M⁻¹ s⁻¹.

With `O=C(c1ccc(Cl)cc1)c1ccccn1` [CPMK, (4-chlorophenyl)-(pyridin-2-yl)-methanone] the Kcat [4] was 5.9 ± 0.09 s⁻¹, the Km [4] was 1150 ± 50 µM and the Vmax [4] was 8.9 ± 0.78 µM/min/mg. The Kcat [5] was 11.07 ± 0.25 s⁻¹, the Km [5] was 1660 ± 20 µM and the Vmax [5] was 16.6 ± 0.37 µM/min/mg. For the same compound, the Km [6] was 0.76.

In the case of “alcohol dehydrogenase KpADH (SEQ ID No. 2) mutant A269C/S237C (Vanderwaltozyma polyspora DSM 70294; A269C/S237C)”, the Km ([2]; other: A269C/S237C) is reported as 1560 ± 20 µM, the Vmax ([2]; other: A269C/S237C) is reported as 22.6 µM/min/mg and the kcat ([2]; other: A269C/S237C) is reported as 15.4 ± 0.86 s⁻¹. It also gave a kcat/Km ([2]; other: A269C/S237C) of 9900 ± 360 M⁻¹ s⁻¹.

Compound “alcohol dehydrogenase KpADH (SEQ ID No. 2) mutant S237A (Vanderwaltozyma polyspora DSM 70294; S237A)” has a Km ([2]; other: S237A) of 580 ± 30 µM, a Vmax ([2]; other: S237A) of 36.5 µM/min/mg and a kcat ([2]; other: S237A) of 24.4 ± 1.26 s⁻¹. The kcat/Km ([2]; other: S237A) was 42000 ± 2360 M⁻¹ s⁻¹.

In the case of “alcohol dehydrogenase KpADH (SEQ ID No. 2) mutant S237C (Vanderwaltozyma polyspora DSM 70294; S237C)”, the Km ([2]; other: S237C) is reported as 1010 ± 100 µM, the Vmax ([2]; other: S237C) is reported as 20.9 µM/min/mg and the kcat ([2]; other: S237C) is reported as 13.9 ± 0.99 s⁻¹. The kcat/Km ([2]; other: S237C) was 13800 ± 250 M⁻¹ s⁻¹.

Work on “alcohol dehydrogenase KpADH (SEQ ID No. 2) mutant H249Y/S237C (Vanderwaltozyma polyspora DSM 70294; H249Y/S237C)” yielded a Km ([2]; other: H249Y/S237C) of 980 ± 20 µM, a Vmax ([2]; other: H249Y/S237C) of 16.5 µM/min/mg and a kcat ([2]; other: H249Y/S237C) of 11 ± 0.83 s⁻¹. For the same compound, the kcat/Km ([2]; other: H249Y/S237C) was 11200 ± 980 M⁻¹ s⁻¹.
